Results on 17 molecules are retold here after paper PMC6821195, “The internal interaction in RBBP5 regulates assembly and activity of MLL1 methyltransferase complex” (Nucleic Acids Research, 2019).

To fix the notation:
B1: RBBP5 WD40 propeller (residues 2–333) (domain or fragment)
chain: NLELLESFGQNYPEEADGTLDCISMALTCTFNRWGTLLAVGCNDGRIVIWDFLTRGIAKIISAHIHPVCSLCWSRDGHKLVSASTDNIVSQWDVLSGDCDQRFRFPSPILKVQYHPRDQNKVLVCPMKSAPVMLTLSDSKHVVLPVDDDSDLNVVASFDRRGEYIYTGNAKGKILVLKTDSQDLVASFRVTTGTSNTTAIKSIEFARKGSCFLINTADRIIRVYDGREILTCGRDGEPEPMQKLQDLVNRTPWKKCCFSGDGEYIVAGSARQHALYIWEKSIGNLVKILHGTRGELLLDVAWHPVRPIIASISSGVVSIWAQNQVENWSAFA

Where two headings read alike, the source gives them in different places.

Data set [1] has as its system RBBP5 full-length (Homo sapiens). In words: fluorescence polarization. As to conditions: FP: 20 mM HEPES pH 7.4, 150 mM NaCl, 0.1% BSA, 0.1 uM DNA, 25 C, 30 min; EMSA: 20 mM Tris-HCl pH 8.0, 150 mM NaCl, 10% glycerol, 0.1 uM nucleosome, on ice 1 h …. On the technique in general: In fluorescence polarisation assays a small probe gives low polarisation when free and higher when bound to something large.

For data set [2], the system named is RBBP5 2-325 (Homo sapiens). The data set is described as follows: fluorescence polarization. As to conditions: FP: 20 mM HEPES pH 7.4, 150 mM NaCl, 0.1% BSA, 0.1 uM DNA, 25 C, 30 min; EMSA: 20 mM Tris-HCl pH 8.0, 150 mM NaCl, 10% glycerol, 0.1 uM nucleosome, on ice 1 h ….
Data set [3] concerns RBBP5 CTD3 (Homo sapiens). In words: fluorescence polarization. As to conditions: FP: 20 mM HEPES pH 7.4, 150 mM NaCl, 0.1% BSA, 0.1 uM DNA, 25 C, 30 min; EMSA: 20 mM Tris-HCl pH 8.0, 150 mM NaCl, 10% glycerol, 0.1 uM nucleosome, on ice 1 h ….
Data set [4] deals with T1, RBBP5_(390–480d) (C-terminal distal region 390–480 with the 422–443 loop deletion) (human, UniProt Q15291 390-480, 422–443 loop deletion). In words: ITC.
For data set [5], the target named is T1, RBBP5_(390–480d) (C-terminal distal …). In words: ITC. This is another data set of the same source. A general note: In ITC the heat of successive injections is recorded.
For data set [6], the target named is B1. In words: ITC.
Data set [7] concerns the target T2, RBBP5 WD40 propeller (residues 2–333) (human, UniProt Q15291 2-333).
T2 construct: source: Rosetta cells, purified (Ni-NTA, on-beads Ulp1 digestion, SEC)
In words: ITC; RBBP5_(381–538) (1 mM) titrated into 0.1 mM RBBP5_(2–333); 150 mM NaCl, 25 mM Tris–HCl pH 8.0 (300 and 800 mM NaCl also tested); 20°C; one-site model. As to conditions: both partners purified.

Data set [8] deals with B1. In words: ITC; 800 mM NaCl.
The target in data set [9] is B1. The data set is described as follows: ITC; 300 mM NaCl.
In data set [10] the target is T3, RBBP5 WD40 propeller with residues 10–325 (RBBP5_(10–325)) (human, UniProt Q15291 10-325, selenomethionine (Se-Met derivative protein)).
T3 construct: RBBP5, human, residues 10-325 (WD40 propeller); native and Se-Met complexes were both crystallised; the solved dataset is of the Se-Met crystal; also called SeMet RBBP5_(10–325); source: Rosetta cells (Se-Met derivative grown in M9 minimal media), purified (Ni-NTA, on-beads Ulp1 digestion, SEC)
In words: crystal structure; RBBP5_(10–325) and RBBP5_(390–480d) mixed at 1:2 and purified by SEC; crystals in 0.1 M HEPES-Na pH 7.5, 2% PEG 400, 2.0 M ammonium sulfate, 16°C; Se-Met SAD, 1.8 Å. As to conditions: both partners purified. (SEC sorts molecules by how far they enter the pores of the column.)

In data set [11] the target is T2, RBBP5 WD40 propeller (residues 2–333). In words: ITC; RBBP5 C-terminal constructs, RBBP5_(390–480d) or its mutants (1 mM) injected into 0.1 mM RBBP5_(2–333); 300 mM NaCl, 25 mM Tris–HCl pH 8.0; 20°C; one-site model. As to conditions: both partners purified.
Data set [12] deals with B1. In words: ITC.
Data set [13] deals with T4, RBBP5 WD40 propeller (residues 2–333), Q15291.
T4 chain: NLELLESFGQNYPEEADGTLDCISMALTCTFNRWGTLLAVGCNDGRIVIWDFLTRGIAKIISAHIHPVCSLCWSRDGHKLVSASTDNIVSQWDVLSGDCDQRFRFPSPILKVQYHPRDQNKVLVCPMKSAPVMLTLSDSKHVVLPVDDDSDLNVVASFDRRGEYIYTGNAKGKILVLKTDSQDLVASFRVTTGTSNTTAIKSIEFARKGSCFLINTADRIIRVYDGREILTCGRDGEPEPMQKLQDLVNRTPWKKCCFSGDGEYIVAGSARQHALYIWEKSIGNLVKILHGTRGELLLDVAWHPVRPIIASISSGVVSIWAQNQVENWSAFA
In words: ITC. The settings on record: chain shown with the change; 25mM Tris–HCl, 300 mM NaCl, pH 8.0.

The Kd is the free concentration of one partner at which half of the binding sites on the other are occupied at equilibrium, for simple one-to-one binding. A higher Kd goes with lower affinity.

Turning to FAM-labelled 167-bp dsDNA, the Kd worked out at 11.5 µM in data set [1], 35.1 µM in [2] and 13.3 µM in data set [3].

In the case of B1, the Kd in [4] was 4.3 µM; in [5], 5.2 µM.

B2: RBBP5 C-terminal distal region (residues 381–538) (domain or fragment, human, UniProt Q15291 381-538, looked up)
chain: DPIAAFCSSDEELEDSKALLYLPIAPEVEDPEENPYGPPPDAVQTSLMDEGASSEKKRQSSADGSQPPKKKPKTTNIELQGVPNDEVHPLLGVKGDGKSKKKQAGRPKGSKGKEKDSPFKPKLYKGDRGLPLEGSAKGKVQAELSQPLTAGGAISELL
notes: also called RBBP5CTD; source: Rosetta cells, purified (Ni-NTA, on-beads Ulp1 digestion, SEC)
For B2, the Kd in [6] was determined as 9.7 µM; in [7], 6.8 µM; in data set [8] it was 24.6 µM; in [9], 9.7 µM.

B3: RBBP5 390-474 (protein)
chain: DEELEDSKALLYLPIAPEVEDPEENPYGPPPDAVQTSLMDEGASSEKKRQSSADGSQPPKKKPKTTNIELQGVPNDEVHPLLGVK
In turn, B3 gave a Kd in data set [6] of 11.7 µM.

B4: RBBP5 404-538 (protein)
chain: IAPEVEDPEENPYGPPPDAVQTSLMDEGASSEKKRQSSADGSQPPKKKPKTTNIELQGVPNDEVHPLLGVKGDGKSKKKQAGRPKGSKGKEKDSPFKPKLYKGDRGLPLEGSAKGKVQAELSQPLTAGGAISELL
In data set [6], B4 returned a Kd of 59.8 µM.

B5: RBBP5 390-467 (protein)
chain: DEELEDSKALLYLPIAPEVEDPEENPYGPPPDAVQTSLMDEGASSEKKRQSSADGSQPPKKKPKTTNIELQGVPNDEV
B5: the affinity in [6], expressed as Kd, was 17.3 µM.

B6: RBBP5_(390–480d) (C-terminal distal region 390–480 with the 422–443 loop deletion) (domain or fragment, human, UniProt Q15291 390-480, looked up)
chain: DEELEDSKALLYLPIAPEVEDPEENPYGPPPDGSQPPKKKPKTTNIELQGVPNDEVHPLLGVKGDGKSK
notes: RBBP5, human, residues 390-480 with the loop 422-443 deleted; also called RBBP5_(CTDM); C-Terminal Distal Minimized; source: Rosetta cells, purified (Ni-NTA, on-beads Ulp1 digestion, SEC)
Consider B6, for which the binding result in data set [10] and in data set [11] was “binds” in each case.

B7: RBBP5390-480d I457/L459A (protein)
chain: DEELEDSKALLYLPIAPEVEDPEENPYGPPPDGSQPPKKKPKTTNAEAQGVPNDEVHPLLGVKGDGKSK
B7 gave a Kd in data set [12] of 108 µM.

B8: RBBP5_(390–480d) (C-terminal distal region 390–480 with the 422–443 loop deletion), Q15291 L399A; L400A; I457A; L459A (protein)
chain: DEELEDSKAAAYLPIAPEVEDPEENPYGPPPDGSQPPKKKPKTTNAEAQGVPNDEVHPLLGVKGDGKSK
With B8, in [13], the Kd was determined as 369 µM.

B9: RBBP5_(CTDM) (RBBP5_(390–480d)) L459A (domain or fragment, human, UniProt Q15291 390-480, looked up)
chain: DEELEDSKALLYLPIAPEVEDPEENPYGPPPDGSQPPKKKPKTTNIEAQGVPNDEVHPLLGVKGDGKSK
notes: RBBP5, human, residues 390-480 with the loop 422-443 deleted, L459A; source: Rosetta cells, purified (Ni-NTA, on-beads Ulp1 digestion, SEC)
As to B9, the binding result in data set [11] is “binds”.

B10: RBBP5_(CTDM) (RBBP5_(390–480d)) I457A (domain or fragment, human, UniProt Q15291 390-480, looked up)
chain: DEELEDSKALLYLPIAPEVEDPEENPYGPPPDGSQPPKKKPKTTNAELQGVPNDEVHPLLGVKGDGKSK
notes: RBBP5, human, residues 390-480 with the loop 422-443 deleted, I457A; source: Rosetta cells, purified (Ni-NTA, on-beads Ulp1 digestion, SEC)
Turning to B10, the binding result in data set [11] is “binds”.

B11: RBBP5_(CTDM) (RBBP5_(390–480d)) L470A (domain or fragment, human, UniProt Q15291 390-480, looked up)
chain: DEELEDSKALLYLPIAPEVEDPEENPYGPPPDGSQPPKKKPKTTNIELQGVPNDEVHPALGVKGDGKSK
notes: RBBP5, human, residues 390-480 with the loop 422-443 deleted, L470A; source: Rosetta cells, purified (Ni-NTA, on-beads Ulp1 digestion, SEC)
Consider B11, for which the Kd in data set [13] worked out at 19.1 µM. The binding result in data set [11] is “binds”.

B12: RBBP5_(CTDM) (RBBP5_(390–480d)) L399A (domain or fragment, human, UniProt Q15291 390-480, looked up)
chain: DEELEDSKAALYLPIAPEVEDPEENPYGPPPDGSQPPKKKPKTTNIELQGVPNDEVHPLLGVKGDGKSK
notes: RBBP5, human, residues 390-480 with the loop 422-443 deleted, L399A; source: Rosetta cells, purified (Ni-NTA, on-beads Ulp1 digestion, SEC)
Take B12: in data set [11], the Kd was roughly 70 µM and the “fold decrease in affinity against wild-type RBBP5_(CTDM)” value was roughly 13 fold.

B13: RBBP5_(CTDM) (RBBP5_(390–480d)) L400A (domain or fragment, human, UniProt Q15291 390-480, looked up)
chain: DEELEDSKALAYLPIAPEVEDPEENPYGPPPDGSQPPKKKPKTTNIELQGVPNDEVHPLLGVKGDGKSK
notes: RBBP5, human, residues 390-480 with the loop 422-443 deleted, L400A; source: Rosetta cells, purified (Ni-NTA, on-beads Ulp1 digestion, SEC)
Consider B13, for which, in data set [11], the Kd is roughly 70 µM and the “fold decrease in affinity against wild-type RBBP5_(CTDM)” value is roughly 13 fold.

B14: RBBP5 381-480 (protein)
chain: DPIAAFCSSDEELEDSKALLYLPIAPEVEDPEENPYGPPPDAVQTSLMDEGASSEKKRQSSADGSQPPKKKPKTTNIELQGVPNDEVHPLLGVKGDGKSK
B14: the Kd in data set [6] was determined as 9.6 µM. This counts as single-digit micromolar.

B15: RBBP5 C-terminal construct (390–480) (domain or fragment, human, UniProt Q15291 390-480, looked up)
chain: DEELEDSKALLYLPIAPEVEDPEENPYGPPPDAVQTSLMDEGASSEKKRQSSADGSQPPKKKPKTTNIELQGVPNDEVHPLLGVKGDGKSK
notes: RBBP5, human, residues 390-480; also called RBBP5_(390–480); source: Rosetta cells, purified (Ni-NTA, on-beads Ulp1 digestion, SEC)
B15 returned a Kd in data set [6] of 7.5 µM. For the same molecule, in data set [11], the binding result is recorded as “binds”.

B16: RBBP5_(393–480) construct (domain or fragment, human, UniProt Q15291 393-480, looked up)
chain: LEDSKALLYLPIAPEVEDPEENPYGPPPDAVQTSLMDEGASSEKKRQSSADGSQPPKKKPKTTNIELQGVPNDEVHPLLGVKGDGKSK
notes: RBBP5, human, residues 393-480; source: Rosetta cells, purified (Ni-NTA, on-beads Ulp1 digestion, SEC)
Regarding B16, binding in [6] was put at a Kd of 20.3 µM. In addition, the binding result in [11] was “binds”.
